Experimental data reported in PMC3840697 (Angewandte Chemie (International Ed. in English), 2013).

Molecular target: T1, exosome core with Rrp42 N9A (state A mutant) (UniProt Q9UXC2 1-248; Q9UXC0 1-275, N9A)
T1 sequence 1: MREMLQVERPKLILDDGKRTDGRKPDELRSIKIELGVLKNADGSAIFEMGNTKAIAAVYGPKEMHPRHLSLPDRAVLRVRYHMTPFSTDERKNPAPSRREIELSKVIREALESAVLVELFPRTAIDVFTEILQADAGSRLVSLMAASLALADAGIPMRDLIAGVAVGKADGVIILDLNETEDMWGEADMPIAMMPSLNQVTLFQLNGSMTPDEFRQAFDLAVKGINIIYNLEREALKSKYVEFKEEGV
T1 sequence 2: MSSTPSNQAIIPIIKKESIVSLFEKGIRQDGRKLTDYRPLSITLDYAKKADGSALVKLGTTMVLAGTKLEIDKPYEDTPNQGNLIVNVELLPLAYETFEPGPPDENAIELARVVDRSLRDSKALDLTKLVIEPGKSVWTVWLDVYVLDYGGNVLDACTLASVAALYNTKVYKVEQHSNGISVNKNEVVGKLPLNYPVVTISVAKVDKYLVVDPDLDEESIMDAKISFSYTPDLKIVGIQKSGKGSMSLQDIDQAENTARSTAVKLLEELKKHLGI
Test: methyl TROSY NMR spectra of free and cap-bound exosome core

B1: Rrp4 (exosome cap protein) (natural protein)
chain: MNMSQSQKIVLQPRSIVVPGELLAEGEFQIPWSPYILKINSKYYSTVVGLFDVKDTQFEVIPLEGSFYYPKINDIVIGLVEDVEIYGWVVDIKAPYKAYLPASNLLGRSINVGEDLRRYLDVGDYVIARIENFDRSIDPVLSVKGKDLGRVSNGIVIDIMPVKVPRVIGKNKSMYETLTSKSGCSIFVANNGRIWATCPSRFSEEILIEAIRKIENESHIKGLTDRIKQFIEEKLGERNASSGETKTNS
B1: binds.
